Test results taken from PMC9270243.

What was measured:
Cas2/3 (P. aeruginosa) = Cas2/3 (P. aeruginosa) (UniProt Q02ML8); assay: SPR
[1] = target: Csy complex (P. aeruginosa) (UniProt Q02ML9); assay: MST
AcrIF3 (P. aeruginosa) = assay: MST
AcrIF23 (P. aeruginosa) = assay: MST
[2] = target: T1, Csy complex (Cas8f, Cas5f, Cas7f, Cas6f, crRNA) (Pseudomonas aeruginosa, UniProt Q02ML9;Q02MM0;Q02MM1;Q02MM2 1-434;1-327;1-342;1-187); assay: EMSA
T1 sequence 1: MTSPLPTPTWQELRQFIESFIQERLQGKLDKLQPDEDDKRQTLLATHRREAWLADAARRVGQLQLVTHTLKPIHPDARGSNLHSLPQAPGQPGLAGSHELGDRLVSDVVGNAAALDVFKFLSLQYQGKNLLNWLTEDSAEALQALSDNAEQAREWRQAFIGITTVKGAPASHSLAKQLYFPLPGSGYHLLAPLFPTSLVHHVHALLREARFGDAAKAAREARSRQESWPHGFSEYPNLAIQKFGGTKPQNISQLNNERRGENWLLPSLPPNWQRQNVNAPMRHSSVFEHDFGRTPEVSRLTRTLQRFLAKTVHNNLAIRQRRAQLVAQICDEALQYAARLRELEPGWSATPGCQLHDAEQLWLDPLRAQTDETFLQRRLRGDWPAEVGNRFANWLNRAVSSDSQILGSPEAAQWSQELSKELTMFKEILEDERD
T1 sequence 2: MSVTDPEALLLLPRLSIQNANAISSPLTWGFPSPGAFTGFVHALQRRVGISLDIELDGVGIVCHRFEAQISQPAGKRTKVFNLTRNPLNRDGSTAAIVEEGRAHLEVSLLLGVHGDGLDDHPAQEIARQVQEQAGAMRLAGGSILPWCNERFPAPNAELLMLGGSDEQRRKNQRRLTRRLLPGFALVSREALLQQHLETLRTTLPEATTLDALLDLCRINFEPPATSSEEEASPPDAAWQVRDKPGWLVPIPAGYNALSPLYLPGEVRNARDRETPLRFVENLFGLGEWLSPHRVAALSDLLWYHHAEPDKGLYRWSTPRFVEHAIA
T1 sequence 3: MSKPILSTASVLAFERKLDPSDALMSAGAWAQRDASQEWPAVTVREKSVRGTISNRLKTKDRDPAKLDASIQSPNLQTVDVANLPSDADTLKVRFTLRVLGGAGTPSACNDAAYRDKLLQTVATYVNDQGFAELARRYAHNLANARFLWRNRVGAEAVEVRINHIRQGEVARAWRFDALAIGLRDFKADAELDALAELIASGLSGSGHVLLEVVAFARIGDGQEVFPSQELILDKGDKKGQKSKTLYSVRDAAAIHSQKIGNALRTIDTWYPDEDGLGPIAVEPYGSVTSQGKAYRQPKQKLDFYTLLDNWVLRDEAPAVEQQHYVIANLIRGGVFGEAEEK
T1 sequence 4: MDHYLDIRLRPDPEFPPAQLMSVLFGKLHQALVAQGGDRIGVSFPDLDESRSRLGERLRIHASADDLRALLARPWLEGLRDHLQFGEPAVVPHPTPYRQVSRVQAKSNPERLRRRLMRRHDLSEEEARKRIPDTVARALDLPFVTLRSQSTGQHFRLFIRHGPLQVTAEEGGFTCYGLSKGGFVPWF

[3] = target: Csy complex (Cas8f, Cas5f, Cas7f, Cas6f, crRNA);Cas2/3 (Pseudomonas aeruginosa;Pseudomonas …, UniProt Q02ML9;Q02MM0;Q02MM1;Q02MM2;Q02ML8 1-434;1-327;1-342;1-187;1-1076, |); assay: EMSA
Cas2/3 = target: T2, Cas2/3 (UniProt Q02ML8 1-1076); assay: EMSA
T2 sequence: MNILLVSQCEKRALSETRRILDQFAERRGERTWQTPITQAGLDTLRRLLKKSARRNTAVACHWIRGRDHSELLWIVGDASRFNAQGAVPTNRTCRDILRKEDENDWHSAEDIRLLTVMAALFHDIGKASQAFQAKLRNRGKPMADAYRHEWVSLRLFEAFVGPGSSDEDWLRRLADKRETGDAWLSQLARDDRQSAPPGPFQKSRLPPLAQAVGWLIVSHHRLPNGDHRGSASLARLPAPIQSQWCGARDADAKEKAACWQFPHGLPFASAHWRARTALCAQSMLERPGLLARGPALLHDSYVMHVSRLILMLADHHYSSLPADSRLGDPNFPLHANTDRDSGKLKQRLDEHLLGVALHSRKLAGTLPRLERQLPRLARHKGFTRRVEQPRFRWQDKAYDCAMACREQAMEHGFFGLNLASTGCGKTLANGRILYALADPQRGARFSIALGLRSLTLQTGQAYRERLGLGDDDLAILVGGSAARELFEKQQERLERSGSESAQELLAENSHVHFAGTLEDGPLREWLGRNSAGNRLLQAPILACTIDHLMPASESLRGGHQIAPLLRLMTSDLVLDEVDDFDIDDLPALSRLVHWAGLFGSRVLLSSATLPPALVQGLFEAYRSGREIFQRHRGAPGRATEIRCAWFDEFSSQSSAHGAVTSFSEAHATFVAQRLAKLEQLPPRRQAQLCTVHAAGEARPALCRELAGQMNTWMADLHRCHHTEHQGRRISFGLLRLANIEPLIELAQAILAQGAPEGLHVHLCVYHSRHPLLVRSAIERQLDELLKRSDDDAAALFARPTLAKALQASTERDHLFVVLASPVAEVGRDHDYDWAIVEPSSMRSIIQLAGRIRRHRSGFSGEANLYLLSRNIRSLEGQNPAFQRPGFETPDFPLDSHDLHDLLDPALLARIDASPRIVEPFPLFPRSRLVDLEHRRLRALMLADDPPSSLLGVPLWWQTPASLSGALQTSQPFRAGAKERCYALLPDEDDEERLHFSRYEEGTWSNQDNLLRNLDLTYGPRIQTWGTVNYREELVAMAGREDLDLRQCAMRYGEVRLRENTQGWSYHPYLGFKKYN

AcrIF23 (natural protein)
Kd (Cas2/3 (P. aeruginosa)): 3360 nM

AcrIF1 (natural protein)
Kd [1]: 420 nM

B1: Cas2/3 (enzyme)
chain: MNILLVSQCEKRALSETRRILDQFAERRGERTWQTPITQAGLDTLRRLLKKSARRNTAVACHWIRGRDHSELLWIVGDASRFNAQGAVPTNRTCRDILRKEDENDWHSAEDIRLLTVMAALFHDIGKASQAFQAKLRNRGKPMADAYRHEWVSLRLFEAFVGPGSSDEDWLRRLADKRETGDAWLSQLARDDRQSAPPGPFQKSRLPPLAQAVGWLIVSHHRLPNGDHRGSASLARLPAPIQSQWCGARDADAKEKAACWQFPHGLPFASAHWRARTALCAQSMLERPGLLARGPALLHDSYVMHVSRLILMLADHHYSSLPADSRLGDPNFPLHANTDRDSGKLKQRLDEHLLGVALHSRKLAGTLPRLERQLPRLARHKGFTRRVEQPRFRWQDKAYDCAMACREQAMEHGFFGLNLASTGCGKTLANGRILYALADPQRGARFSIALGLRSLTLQTGQAYRERLGLGDDDLAILVGGSAARELFEKQQERLERSGSESAQELLAENSHVHFAGTLEDGPLREWLGRNSAGNRLLQAPILACTIDHLMPASESLRGGHQIAPLLRLMTSDLVLDEVDDFDIDDLPALSRLVHWAGLFGSRVLLSSATLPPALVQGLFEAYRSGREIFQRHRGAPGRATEIRCAWFDEFSSQSSAHGAVTSFSEAHATFVAQRLAKLEQLPPRRQAQLCTVHAAGEARPALCRELAGQMNTWMADLHRCHHTEHQGRRISFGLLRLANIEPLIELAQAILAQGAPEGLHVHLCVYHSRHPLLVRSAIERQLDELLKRSDDDAAALFARPTLAKALQASTERDHLFVVLASPVAEVGRDHDYDWAIVEPSSMRSIIQLAGRIRRHRSGFSGEANLYLLSRNIRSLEGQNPAFQRPGFETPDFPLDSHDLHDLLDPALLARIDASPRIVEPFPLFPRSRLVDLEHRRLRALMLADDPPSSLLGVPLWWQTPASLSGALQTSQPFRAGAKERCYALLPDEDDEERLHFSRYEEGTWSNQDNLLRNLDLTYGPRIQTWGTVNYREELVAMAGREDLDLRQCAMRYGEVRLRENTQGWSYHPYLGFKKYN
Kd (AcrIF3 (P. aeruginosa)): 31 nM
Kd (AcrIF23 (P. aeruginosa)): 1200 nM

B2: 54 bp target dsDNA (dsDNA)
DNA 1: GGAAGCCATCCAGGTAGACGCGGACATCAAGCCCGCCGTGAAGGTGCAGCTGCT
DNA 2: AGCAGCTGCACCTTCACGGCGGGCTTGATGTCCGCGTCTACCTGGATGGCTTCC
binding result [2]: binds
binding result [3]: binds

B3: 54 nt ssDNA (ssDNA)
DNA: GGAAGCCATCCAGGTAGACGCGGACATCAAGCCCGCCGTGAAGGTGCAGCTGCT
binding result (Cas2/3): binds
